# Target: T1, LRRK2(G2019S) (Homo sapiens, UniProt Q5S007, G2019S/M2397T/R50H)
# T1 construct: SF tag (FLAG + Twin-Strep); expressed in transfected cells; host or cells: HEK 293T
# Assay: In cellulo phospho-Rab / LRRK2 autophosphorylation assay in HEK293T cells
# Format: cell-based
# Set-up: key to Functional Group (see FIG. 2d): Group 1: group 1: Nbs that inhibit both LRRK2 autophosphorylation and Rab10 phosphorylation in cells; Group 2: group 2: Nbs that inhibit only Rab10 phosphorylation; Group 3: group 3: Nbs that activate LRRK2 kinase activity; Group 4: group 4: Nbs that have no consistent/clear effect on LRRK2 kinase activity
# Details: for influence on LRRK2 kinase activity compared to the controls / Rab10 phosphorylation at position T72 / LRRK2 autophosphorylation at position S1292: HEK 293T cells co-expressing LRRK2(G2019S), Rab29 and Nb-GFP; for influence on LRRK2 kinase activity compared to the controls: Western blot; for Functional Group (see FIG. 2d): classification by effect on in cellulo LRRK2(G2019S) kinase activity; for Rab10 phosphorylation at position T72: endogenous Rab10
# Summary of the method: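 Cells co-transfected (PEI) with SF-tagged LRRK2(G2019S), FLAG-HA Rab29 and Nb-GFP fusions, lysed after 48 hrs. Western blot read LRRK2 pS1292 and endogenous Rab10 pT72 with site-specific antibodies, referenced to total LRRK2 and Rab10; ECL chemiluminescence on film.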
# T1 sequence (Q5S007 whole entry R50H/G2019S/M2397T): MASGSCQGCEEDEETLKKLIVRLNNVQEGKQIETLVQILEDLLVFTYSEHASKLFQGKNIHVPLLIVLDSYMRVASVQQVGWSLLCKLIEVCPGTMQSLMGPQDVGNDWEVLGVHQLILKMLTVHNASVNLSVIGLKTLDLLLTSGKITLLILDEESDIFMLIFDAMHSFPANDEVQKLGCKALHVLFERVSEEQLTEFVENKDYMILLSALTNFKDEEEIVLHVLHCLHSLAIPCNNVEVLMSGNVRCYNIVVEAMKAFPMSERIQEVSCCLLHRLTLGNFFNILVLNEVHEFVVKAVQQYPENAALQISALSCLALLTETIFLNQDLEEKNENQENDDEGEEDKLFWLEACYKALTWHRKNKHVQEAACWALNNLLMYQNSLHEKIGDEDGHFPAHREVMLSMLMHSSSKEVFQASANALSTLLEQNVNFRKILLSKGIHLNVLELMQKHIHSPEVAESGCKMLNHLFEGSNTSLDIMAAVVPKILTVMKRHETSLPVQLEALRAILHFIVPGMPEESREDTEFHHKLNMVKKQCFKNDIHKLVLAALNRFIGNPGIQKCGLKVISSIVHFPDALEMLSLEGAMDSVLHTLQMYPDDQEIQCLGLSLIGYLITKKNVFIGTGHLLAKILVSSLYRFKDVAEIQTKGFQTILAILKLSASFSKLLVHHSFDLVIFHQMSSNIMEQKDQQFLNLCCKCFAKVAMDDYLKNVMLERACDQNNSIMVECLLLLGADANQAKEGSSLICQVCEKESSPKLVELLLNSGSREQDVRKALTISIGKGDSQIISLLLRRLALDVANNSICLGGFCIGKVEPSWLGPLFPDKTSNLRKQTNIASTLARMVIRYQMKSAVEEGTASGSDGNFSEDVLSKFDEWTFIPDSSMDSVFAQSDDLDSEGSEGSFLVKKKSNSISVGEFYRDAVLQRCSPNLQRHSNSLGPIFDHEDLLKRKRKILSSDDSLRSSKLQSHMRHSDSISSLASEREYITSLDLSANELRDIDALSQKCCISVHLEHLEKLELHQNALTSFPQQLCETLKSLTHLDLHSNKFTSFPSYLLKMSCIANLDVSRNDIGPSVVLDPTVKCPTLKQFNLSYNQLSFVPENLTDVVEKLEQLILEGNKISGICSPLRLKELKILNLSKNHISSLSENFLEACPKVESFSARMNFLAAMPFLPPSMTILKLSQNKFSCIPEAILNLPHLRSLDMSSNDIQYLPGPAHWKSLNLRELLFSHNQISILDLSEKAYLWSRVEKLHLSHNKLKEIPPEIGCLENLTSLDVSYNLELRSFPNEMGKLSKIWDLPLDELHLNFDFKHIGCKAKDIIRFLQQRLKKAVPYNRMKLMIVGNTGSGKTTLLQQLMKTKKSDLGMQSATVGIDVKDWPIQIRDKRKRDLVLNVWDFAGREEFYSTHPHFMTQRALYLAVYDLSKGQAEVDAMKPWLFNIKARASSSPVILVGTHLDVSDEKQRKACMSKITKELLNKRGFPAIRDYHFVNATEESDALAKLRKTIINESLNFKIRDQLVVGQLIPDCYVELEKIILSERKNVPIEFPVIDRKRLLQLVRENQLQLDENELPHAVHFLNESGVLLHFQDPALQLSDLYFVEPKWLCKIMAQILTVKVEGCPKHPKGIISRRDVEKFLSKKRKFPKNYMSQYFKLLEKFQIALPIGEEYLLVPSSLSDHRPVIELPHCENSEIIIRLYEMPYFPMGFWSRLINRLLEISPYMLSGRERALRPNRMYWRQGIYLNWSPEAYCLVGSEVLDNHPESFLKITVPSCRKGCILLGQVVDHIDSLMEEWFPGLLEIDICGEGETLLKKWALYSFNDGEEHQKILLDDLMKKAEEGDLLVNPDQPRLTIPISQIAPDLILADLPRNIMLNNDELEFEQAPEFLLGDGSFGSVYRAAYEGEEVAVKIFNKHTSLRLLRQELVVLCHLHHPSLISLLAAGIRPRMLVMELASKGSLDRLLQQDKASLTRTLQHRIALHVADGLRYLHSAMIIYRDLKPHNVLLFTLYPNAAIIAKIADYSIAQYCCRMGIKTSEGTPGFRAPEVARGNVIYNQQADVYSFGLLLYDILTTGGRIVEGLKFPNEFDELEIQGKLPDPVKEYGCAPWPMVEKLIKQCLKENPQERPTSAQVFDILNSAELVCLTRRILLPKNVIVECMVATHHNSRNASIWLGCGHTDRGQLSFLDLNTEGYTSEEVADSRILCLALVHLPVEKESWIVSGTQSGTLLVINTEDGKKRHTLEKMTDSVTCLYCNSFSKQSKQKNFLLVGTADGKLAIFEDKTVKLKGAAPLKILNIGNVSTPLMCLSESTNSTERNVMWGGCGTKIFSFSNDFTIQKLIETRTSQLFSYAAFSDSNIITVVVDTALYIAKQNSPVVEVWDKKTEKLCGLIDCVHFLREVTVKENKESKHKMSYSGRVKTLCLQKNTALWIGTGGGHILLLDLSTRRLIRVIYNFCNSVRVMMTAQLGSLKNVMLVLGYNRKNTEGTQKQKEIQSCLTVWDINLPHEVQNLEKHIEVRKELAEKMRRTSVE
Molecule,influence on LRRK2 kinase activity compared to the controls,Functional Group (see FIG. 2d),Rab10 phosphorylation at position T72,LRRK2 autophosphorylation at position S1292
"Nb22: LRRK2-specific Nanobody, SEQ ID NO: 9 (protein, Nanobody CA13611) VHH: MAQVQLVESGGGLVQAGGSLRLSCAASGRTFSSYTMGWFRQAPGKEREFVAAIRWSGGSTYYADSVKGRFTISRDNAKNTVYLQMNSLKPEDTAVYYCAASDRGGFIATSGGWMDYWGKGTQVTVSS",significant increase of LRRK2 kinase activity,Group 3,activating Rab10 phosphorylation in cells,–
"Nb42: LRRK2-specific Nanobody, SEQ ID NO: 6 (protein, Nanobody CA14259) VHH: MAQVQLVESGGGLVQAGGSLRLSCAASGDVNYAVGWFRQAPRKEREFVAAINWRGDNTDYTDSVKGRFTISRDNAKNTVYLQMNSLKPEDTAVYYCAAKSAPYWYSDIAPDYWGQGTQVTVSS",strongly decreased LRRK2 autophosphorylation and/or Rab10 phosphorylation,Group 1,inhibit both Rab10 phosphorylation and LRRK2 autophosphorylation at S1292,inhibit both Rab10 phosphorylation and LRRK2 autophosphorylation at S1292
"Nb1: LRRK2-specific Nanobody, SEQ ID NO: 1 (protein, Nanobody CA12610) VHH: MAQVQLVESGGGLVQAGGSLRLSCVASGRIFSGNAMGWYRQAPGRQRELVAGITNGGYTNYRQFVKGRFTISRDNAKRTVYLQMNSLKPEDTAVYYCNALDREARQVDYWGQGTQVTVSS",strongly decreased LRRK2 autophosphorylation and/or Rab10 phosphorylation,Group 1,inhibit both Rab10 phosphorylation and LRRK2 autophosphorylation at S1292,inhibit both Rab10 phosphorylation and LRRK2 autophosphorylation at S1292
"Nb6: LRRK2-specific Nanobody, SEQ ID NO: 2 (protein, Nanobody CA12618) VHH: MAQVQLVESGGGLVQAGGSLRLSCAASGSIFSPTAMGWYRQAPGKERELVAGITSGGYTNYRNFARGRFTISRDNAKKTVYLQMNSLNPEDTAVYYCNTLTISWSWGQGTQVTVSS",strongly decreased LRRK2 autophosphorylation and/or Rab10 phosphorylation,Group 1,inhibit both Rab10 phosphorylation and LRRK2 autophosphorylation at S1292,inhibit both Rab10 phosphorylation and LRRK2 autophosphorylation at S1292
"Nb23: LRRK2-specific Nanobody, SEQ ID NO: 3 (protein, Nanobody CA13612) VHH: MAQVQLVESGGGLVQAGGSLRLSCAASGRTFSRYTMGWFRQAPGKDREFVARITTSGAVTTYADSAKGRFTISRDNAKNTVYLQMNTLKPEDTAVYYCAAGQGQLSSQSRFVDYWGQGTQVTVSS",strongly decreased LRRK2 autophosphorylation and/or Rab10 phosphorylation,Group 1,inhibit both Rab10 phosphorylation and LRRK2 autophosphorylation at S1292,inhibit both Rab10 phosphorylation and LRRK2 autophosphorylation at S1292
